Where a chain is given by its changes, count along the chain named. Values joined by “and” are separate entries in the source; they are usually repeats but may differ in a detail not shown here. Equal entries are not always repeated. Blank lines part the entries; values can stand above or below the binder they belong to.
How the values were obtained:
[1] = target: T1, Fc tagged human CD137 (human, UniProt Q07011 24-186); test: SPR
T1 construct: also called CD137-Fc chimeric protein
Method: (§1) Affinity to PDL1 of the different species was determined by SPR measurements using a Biacore T200 device (GE Healthcare). An antibody specific for the Fc region of human IgGs was immobilized on a sensor chip (CM5 sensor chip, GE Healthcare) by amine-coupling. For all formats, with the exception of the Fc containing Morrison formats, PDL1-Fc chimeric protein from different species were captured by the immobilized antibody.
(§2) Three-fold serial dilutions of the molecules specific for PDL1 (0.12-90 nM) were injected into the flow cells for three minutes and dissociation was monitored for 10 minutes. After each injection cycle, surfaces were regenerated with one injection of a 3 M MgCl₂ solution. The apparent dissociation (kd) and association (kₐ) rate constants and the apparent dissociation equilibrium constant (KD) were calculated using one-to-one Langmuir binding model. Affinity to CD137 of the different species was determined using the identical setup as for PDL1 with the exception that CD137-Fc chimeric protein from different species were captured by the immobilized antibody.

[2] = target: T2, Fc tagged human PDL1 (human, UniProt Q9NZQ7 19-239); test: SPR
T2 construct: Bought (Sino Biological, cat. 10084-H02H); captured on the SPR chip; also called PDL1-Fc chimeric protein
Method: as §1, §2

[3] = target: CD137 on Jurkat NFkB reporter cells (human, UniProt Q07011 24-255); test: cell-based or functional assay
[4] = target: human PDL1 on cells (human, UniProt Q9NZQ7 19-290); test: cell-based or functional assay
[5] = target: T3, biotinylated human PDL1 (human, UniProt Q9NZQ7 19-238, limits assumed, biotinylated); test: competition ELISA PD-1/PDL1
T3 construct: also called biotinylated PDL1
Method: (§3) Plates were blocked for 1 hour at room temperature by adding 300 μl of PBS with i%BSA and 0.2% tween (dilution buffer) to each well. Inhibitors were serially diluted in 3-fold steps to final concentrations ranging from 300 to 0.005 ng/ml in dilution buffer containing 1 ng/ml biotinylated human PDL1. The mixtures were pre-incubated for 1 hour at room temperature under gentle agitation on a rotating mixer (21 rpm) and added to the microplates after 3 wash cycles with 450 μl wash buffer per well. Plates were incubated for 1.5 hours at room temperature under gentle agitation, then 10 ng/ml streptavidin-polyHRP40 was added to each microplate well after three washes with 450 μl of wash buffer per well. After 1 h incubation at RT, plates were washed three times with 450 μl wash buffer and TMB substrate solution was added. The enzymatic reaction was stopped after 6 minutes by addition of 1 M HCl and absorbance was measured at 450 nm using 690 nm as a reference wavelength. For calculation of IC₅₀ values, a four-parameter logistic (4PL) curve fit was performed in Graph Pad Prism using reference subtracted values.

[6] = target: T3, biotinylated human PDL1; test: competition ELISA B7.1/PDL1
Method: as §3, with “1% BSA” for “i%BSA”, “Inhibitors were serially diluted in 3-fold steps to final concentrations ranging from 300 to 0.005 ng/ml in dilution buffer containing 1 ng/ml biotinylated human PDL1.” left out

Kd [1]: 1.47 nM
B1: PRO1352 (scFv)
scFv: DIQMTQSPSSLSASVGDRVTITCQASQSINNVLAWYQQKPGKAPKLLIYRASTLASGVPSRFSGSGSGTDFTLTISSLQPEDFATYYCQSSYGNYGDFGCGTKVTVLGGGGGSGGGGSGGGGSGGGGSEVQLVESGGGLVQPGGSLRLSCAASGFSFSNSYWICWVRQAPGKCLEWIGCTFVGSSDSTYYANWAKGRFTISRDNSKNTVYLQMNSLRAEDTAVYYCARHPSDAVYGYANNLWGQGTLVTVSS
notes: also called scFv of 38-02-A04 sc13

Kd [2]: 0.009 nM
B2: PRO1347 (scFv)
scFv: DIQMTQSPASLSASVGDRVTITCQASQSIGTYLAWYQQKPGKPPKLLIYRAFILASGVPSRFSGSGSGTDFTLTISSLQPEDFATYYCQSNFYSDSTTIGPNAFGTGTKVTVLGGGGGSGGGGSGGGGSGGGGSEVQLVESGGGLVQPGGSLRLSCAASGFSFNSDYWIYWVRQAPGKGLEWIASIYGGSSGNTQYASWAQGRFTISRDNSKNTVYLQMNSLRAEDTAVYFCARGYVDYGGATDLWGQGTLVTVSS
notes: also called scFv of 37-20-sc09.1; 37-20-B03-sc09

Kd [2]: 0.00994 nM
B3: PRO1392 (scFv)
scFv: DIQMTQSPSSLSASVGDRVTITCQASQSINDYLAWYQQKPGKAPKLLIYKASTLASGVPSRFSGSGSGTDFTLTISSLQPEDFATYYCQQGYIITDIDNVFGTGTKVTVLGGGGGSGGGGSGGGGSGGGGSQVQLQESGPGLVKPSETLSLTCKASGFSFSSGYDMCWVRQPPGKGLEWIACVVAGSVDITYYASWAKGRVTISKDSSKNQVSLKLSSVTAADTAVYYCARKDAYSDAFNLWGQGTLVTVSS
notes: also called scFv of 33-03-G02 sc18

Kd [2]: < 0.00209 nM
B4: PRO1183 (scFv)
scFv: B3 scFv with I2F, M4L, A43S, V133S, Y228F
notes: also called scFv of 33 03-G02 sc03

IC50 (ng/ml) (EC50 in Table 16C), NFkB reporter, HCC827 + IFNg, 6 h, +HSA [3]: 20.1 ng/mL
IC50 (ng/ml) (EC50 in Table 16C), NFkB reporter, HCC827 + IFNg, 24 h, +HSA [3]: 7.24 ng/mL
rel. IC50 (PRO1186/test), 6 h [3]: 0.55 fold
rel. IC50 (PRO1186/test), 24 h [3]: 1.23 fold
IC50 (ng/ml), NF-AT potency assay, +HSA [4]: 54.8 ng/mL
rel. IC50 (avelumab/test), +HSA [4]: 0.68 fold
IC50 [5]: 1.78 ng/mL
rel. IC50 (IC50 avelumab/IC50 test) [5]: 1.24 fold
Kd [1]: 1.1 nM
kon [1]: 320000 M⁻¹ s⁻¹
Kd [2]: 0.0098 nM
kon [2]: 3.4e+06 M⁻¹ s⁻¹
IC50 [6]: 8.18 ng/mL
rel. IC50 (IC50 avelumab/IC50 test) [6]: 1.51 fold
B5: PRO1482 (other)
chain: DIQMTQSPSSLSASVGDRVTITCQASQSINNVLAWYQQKPGKAPKLLIYRASTLASGVPSRFSGSGSGTDFTLTISSLQPEDFATYYCQSSYGNYGDFGCGTKVTVLGGGGGSEVQLVESGGGLVQPGGSLRLSCAASGFSFNSDYWIYWVRQAPGKGLEWIASIYGGSSGNTQYASWAQGRFTISRDNSKNTVYLQMNSLRAEDTAVYFCARGYVDYGGATDLWGQGTLVTVSSGGGGSGGGGSGGGGSGGGGSIQMTQSPASLSASVGDRVTITCQASQSIGTYLAWYQQKPGKPPKLLIYRAFILASGVPSRFSGSGSGTDFTLTISSLQPEDFATYYCQSNFYSDSTTIGPNAFGTGTKVTVLGGGGGSEVQLVESGGGLVQPGGSLRLSCAASGFSFSNSYWICWVRQAPGKCLEWIGCTFVGSSDSTYYANWAKGRFTISRDNSKNTVYLQMNSLRAEDTAVYYCARHPSDAVYGYANNLWGQGTLVTVSSGGGGSGGGGSIQMTQSPSSLSASVGDRVTITCQSSESVYSNNQLSWYQQKPGQPPKLLIYDASDLASGVPSRFSGSGSGTDFTLTISSLQPEDFATYYCAGGFSSSSDTAFGGGTKLTVLGGGGGSGGGGSGGGGSGGGGSEVQLVESGGGLVQPGGSLRLSCAASGFSLSSNAMGWVRQAPGKGLEYIGIISVGGFTYYASWAKGRFTISRDNSKNTVYLQMNSLRAEDTATYFCARDRHGGDSSGAFYLWGQGTLVTVSS
notes: trispecific scDb-scFv; also called 37-20-B03 sc09.1 scDb-i/38-02-A04 sc13 scDb-o/19-01-H04 sc03 scFv

Kd [2]: 0.00594 nM
B6: PRO908 (scFv)
scFv: DIQMTQSPSSLSASVGDRVTITCQASQSIGTYLAWYQQKPGKAPKLLIYRAFILASGVPSRFSGSGSGTDFTLTISSLQPEDFATYYCQSNFYSDSTTIGPNAFGTGTKVTVLGGGGGSGGGGSGGGGSGGGGSQVQLQESGPGLVKPSETLSLTCKVSGFSFNSDYWIYWIRQPPGKGLEWIGSIYGGSSGNTQYASWAQGRVTISVDSSKNQFSLKLSSVTAADTAVYYCARGYVDYGGATDLWGQGTLVTVSS
notes: also called scFv of 37-20-B03 sc01

Kd [1]: 2.2 nM
koff [1]: 0.0022 s⁻¹
binding result [2]: binds
B7: PRO966 (other)
chain: DIQMTQSPSSLSASVGDRVTITCQASQSINDYLAWYQQKPGKAPKLLIYKASTLASGVPSRFSGSGSGTDFTLTISSLQPEDFATYYCQQGYIITDIDNVFGTGTKVTVLGGGGGSQVQLQESGPGLVKPSETLSLTCKVSGFSFNNDYDMCWIRQPPGKGLEWIGCIDTGDGSTYYASWAKGRVTISVDSSKNQFSLKLSSVTAADTAVYYCAREAASSSGYGMGYFDLWGQGTLVTVSSGGGGSGGGGSGGGGSGGGGSIQMTQSPSSLSASVGDRVTITCQSSQSVYDNNWLAWYQQKPGKAPKLLIYRASNLASGVPSRFSGSGSGTDFTLTISSLQPEDFATYYCQGTYLSSNWYWAFGTGTKVTVLGGGGGSQVQLQESGPGLVKPSETLSLTCKVSGFSFSSGYDMCWIRQPPGKGLEWIGCVVAGSVDITYYASWAKGRVTISVDSSKNQFSLKLSSVTAADTAVYYCARKDAYSDAFNLWGQGTLVTVSSGGGGSGGGGSIQMTQSPSSLSASVGDRVTITCQSSESVYSNNQLSWYQQKPGQPPKLLIYDASDLASGVPSRFSGSGSGTDFTLTISSLQPEDFATYYCAGGFSSSSDTAFGGGTKLTVLGGGGGSGGGGSGGGGSGGGGSEVQLVESGGGLVQPGGSLRLSCAASGFSLSSNAMGWVRQAPGKGLEYIGIISVGGFTYYASWAKGRFTISRDNSKNTVYLQMNSLRAEDTATYFCARDRHGGDSSGAFYLWGQGTLVTVSS
notes: trispecific scDb-scFv; also called PRO1052; 38-27-C05 sc01 scDb-i/33-03-G02 sc01 scDb-o/19-01-H04-sc03 scFv

Kd [1]: 0.234 nM
B8: PRO1360 (scFv)
scFv: DFQLTQSPSSLSASVGDRVTITCQASQSISNRLAWYQQKPGKPPKLLIYSASTLASGVPSRFSGSGSGTDFTLTISSLQPEDFATYYCQSTYYGNDGNAFGTGTKVTVLGGGGGSGGGGSGGGGSGGGGSESQLVESGGGLVQPGGSLRLSCAASGFSFSANYYPCWVRQAPGKGLEWIGCIYGGSSDITYDANWTKGRFTISRDNSKNTVYLQMNSLRAEDTAVYFCARSAWYSGWGGDLWGPGTLVTVSS
notes: anti-CD137 scFv; also called 38-27-A11 sc03 scFv

Kd [1]: 3.24 nM and 3.07 nM
B9: PRO1359 (scFv)
scFv: B8 scFv with F2I, L4M, P43A, S132V, F227Y, P244Q
notes: anti-CD137 scFv; also called 38-27-A11 sc02 scFv
